In PMC3924328, “Structure of the S100A4/myosin-IIA complex” (BMC Structural Biology, 2013):
The star is where a group is joined. FITC = O=C1OC2(c3ccc(O)cc3Oc3cc(O)ccc32)c2ccc(NC(=S)*)cc21; Ahx = NCCCCCC(=O)O

B1: S100A4 (wild-type, full-length, human) (natural protein)
chain: not shown
notes: Dimer; also called wild-type S100A4; Ca^2+-S100A4; source: E. coli BL21(DE3)*, purified (ammonium sulfate, Phenyl-Sepharose, Q XL anion exchange); 15N-labelled from M9 medium for NMR
B2: MIIA^1851-1960 (C-terminal fragment of the human myosin-IIA heavy chain) (domain or fragment, UniProt P35579 1851-1960, looked up)
chain: VDDERRNAEQYKDQADKASTRLKQLKRQLEEAEEEAQRANASRRKLQRELEDATETADAMNREVSSLKNKLRRGDLPFVVPRRMARKGAGDGSDEEVDGKADGAEAKPAE
notes: about 75 residues of the coiled-coil and the entire C-terminal tailpiece; A dimer when alone (sedimentation equilibrium); Printed monomer mass 12,397.5 Da; source: E. coli BL21(DE3)*, purified (High Q Sepharose, hydroxyapatite, Sephacryl S200)
B3: FITC-MIIA^1904-1927 peptide (peptide)
peptide: {FITC-Ahx}-TETADAMNREVSSLKNKLRRGDLP-NH2
SMILES: CSCC[C@H](NC(=O)[C@H](C)NC(=O)[C@H](CC(=O)O)NC(=O)[C@H](C)NC(=O)[C@@H](NC(=O)[C@H](CCC(=O)O)NC(=O)[C@@H](NC(=O)CCCCCNC(=S)Nc1ccc2c(c1)C(=O)OC21c2ccc(O)cc2Oc2cc(O)ccc21)[C@@H](C)O)[C@@H](C)O)C(=O)N[C@@H](CC(N)=O)C(=O)N[C@@H](CCCNC(=N)N)C(=O)N[C@@H](CCC(=O)O)C(=O)N[C@H](C(=O)N[C@@H](CO)C(=O)N[C@@H](CO)C(=O)N[C@@H](CC(C)C)C(=O)N[C@@H](CCCCN)C(=O)N[C@@H](CC(N)=O)C(=O)N[C@@H](CCCCN)C(=O)N[C@@H](CC(C)C)C(=O)N[C@@H](CCCNC(=N)N)C(=O)N[C@@H](CCCNC(=N)N)C(=O)NCC(=O)N[C@@H](CC(=O)O)C(=O)N[C@@H](CC(C)C)C(=O)N1CCC[C@H]1C(N)=O)C(C)C
notes: source: synthetic peptide (Bio-Synthesis Inc.)

Key:
[1] = biological target: the molecule itself; assay: AUC; sedimentation equilibrium, 22°C, interference optics; 20 mM Tris pH 7.5, 150 mM KCl, 0.5 mM CaCl2, 1 mM TCEP; MIIA^1851-1960 alone and mixed with S100A4 at 0.5:1 and 1:1 (dimer:dimer); 12,000, 20,000 and 28,000 rpm
[2] = biological target: B1; assay: fluorescence polarisation; competition anisotropy; 50 nM FITC-MIIA^1904-1927, 0.3 μM S100A4 dimer, 0-10 μM MIIA^1851-1960 dimer; 22°C; 20 mM Tris pH 7.5, 150 mM KCl, 1 mM DTT, 0.5 mM CaCl2, 0.5 mg/ml BSA; conditions: both partners purified
[3] = biological target: B1; assay: AUC; sedimentation equilibrium, 22°C, interference optics; 20 mM Tris pH 7.5, 150 mM KCl, 0.5 mM CaCl2, 1 mM TCEP; MIIA^1851-1960 alone and mixed with S100A4 at 0.5:1 and 1:1 (dimer:dimer); 12,000, 20,000 and 28,000 rpm; conditions: both partners purified
[4] = biological target: B1; assay: AUC; sedimentation velocity, 22°C, 53,000 rpm; 20 mM Tris pH 7.5, 150 mM KCl, 0.5 mM CaCl2, 1 mM TCEP; each protein alone and MIIA^1851-1960 dimer:S100A4 dimer at 0.5:1, 1:1, 1.5:1; conditions: both partners purified
[5] = biological target: T1, S100A4Δ8C (S100A4 with the C-terminal eight amino acids deleted) (human, UniProt P26447 1-93); assay: fluorescence polarisation; direct anisotropy titration; 50 nM FITC-MIIA^1904-1927, 0-30 μM S100A4Δ8C dimer; 22°C; 20 mM Tris pH 7.5, 150 mM KCl, 1 mM DTT, 0.5 mM CaCl2, 0.5 mg/ml BSA; single site saturation fit; conditions: both partners purified
T1 construct: S100A4, human, codon-optimized, untagged, in pET11b; deletion of the C-terminal eight amino acids (residues 94-101 absent); Dimer; also called Ca^2+-S100A4Δ8C; apo-S100A4Δ8C; source: E. coli BL21(DE3)*, purified (ammonium sulfate, Phenyl-Sepharose, Q XL anion exchange; Superdex 75 for crystallization)
T1 sequence (P26447 1-93, stated change not applied): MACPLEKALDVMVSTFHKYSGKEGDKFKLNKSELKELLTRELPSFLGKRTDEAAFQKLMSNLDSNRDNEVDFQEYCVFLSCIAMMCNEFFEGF

B1
binding result [1]: binds

B2
IC50 [2]: 21.2 nM
stoichiometry N [1]: 2
stoichiometry N [3]: 1 MIIA^1851-1960 polypeptide chain per S100A4 dimer
stoichiometry N [4]: 1 MIIA^1851-1960 polypeptide per S100A4 dimer

B3
Kd [5]: 510 ± 50 nM
